Laboratory results published in publication PMC3716865.

What was measured:
[1] = target: Intracellular part of Medicago truncatula Cytokinin Receptor 1 (MtCRE1′) (Medicago truncatula); experiment: dynamic light scattering
[2] = target: Intracellular part of Medicago truncatula Cytokinin Receptor 1 (MtCRE1′) (Medicago truncatula); experiment: SEC

stoichiometry N [1]: 2
stoichiometry N [2]: 2
Substance: Intracellular part of Medicago truncatula Cytokinin Receptor 1 (MtCRE1′) (domain or fragment)
